The chains are these.
T1: His-tagged human B7-H3 (human, UniProt Q5ZPR3-2 29-245, limits assumed)
T1 construct: Bought His-tagged protein coated on the ELISA plate; also called hu B7-H3; CD276
T1 sequence (looked up): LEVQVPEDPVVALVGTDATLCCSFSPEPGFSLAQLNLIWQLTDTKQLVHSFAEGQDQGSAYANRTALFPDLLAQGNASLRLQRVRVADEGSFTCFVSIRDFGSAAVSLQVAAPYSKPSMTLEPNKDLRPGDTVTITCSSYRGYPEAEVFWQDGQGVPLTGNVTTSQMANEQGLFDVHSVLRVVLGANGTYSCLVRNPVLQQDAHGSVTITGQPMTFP

T2: His-tagged mouse B7-H3 (mouse, UniProt Q8VE98 29-244, limits assumed)
T2 construct: Bought His-tagged protein coated on the ELISA plate; also called mu B7-H3; murine B7-H3
T2 sequence (looked up): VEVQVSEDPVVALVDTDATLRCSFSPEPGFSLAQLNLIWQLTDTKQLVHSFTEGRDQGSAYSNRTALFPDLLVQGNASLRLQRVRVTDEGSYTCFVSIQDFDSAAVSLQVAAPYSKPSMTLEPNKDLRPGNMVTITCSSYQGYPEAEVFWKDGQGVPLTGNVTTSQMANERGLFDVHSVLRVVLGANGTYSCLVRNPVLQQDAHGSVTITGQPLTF

T3: His-tagged cynomolgus monkey B7-H3 (cynomolgus monkey)
T3 chain: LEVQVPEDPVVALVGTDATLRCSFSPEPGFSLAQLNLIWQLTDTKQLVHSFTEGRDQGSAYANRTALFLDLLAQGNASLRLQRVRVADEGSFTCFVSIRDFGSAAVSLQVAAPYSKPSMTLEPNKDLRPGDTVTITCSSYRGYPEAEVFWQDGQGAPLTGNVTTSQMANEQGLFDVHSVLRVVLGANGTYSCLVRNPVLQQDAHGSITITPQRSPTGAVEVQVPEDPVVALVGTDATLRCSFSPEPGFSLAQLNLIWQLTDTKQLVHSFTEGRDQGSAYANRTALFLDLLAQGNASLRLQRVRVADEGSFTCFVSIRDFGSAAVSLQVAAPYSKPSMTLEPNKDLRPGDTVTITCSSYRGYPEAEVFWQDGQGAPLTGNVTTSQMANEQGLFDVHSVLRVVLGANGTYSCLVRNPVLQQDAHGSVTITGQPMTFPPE

T4: B7-H3 on B7-H3-expressing CHO cells (Genescript) (UniProt Q5ZPR3 29-534, limits assumed)
T4 construct: whole, on cells; also called CHO-K1/B7-H3; MFI B7-H3
T4 sequence (looked up): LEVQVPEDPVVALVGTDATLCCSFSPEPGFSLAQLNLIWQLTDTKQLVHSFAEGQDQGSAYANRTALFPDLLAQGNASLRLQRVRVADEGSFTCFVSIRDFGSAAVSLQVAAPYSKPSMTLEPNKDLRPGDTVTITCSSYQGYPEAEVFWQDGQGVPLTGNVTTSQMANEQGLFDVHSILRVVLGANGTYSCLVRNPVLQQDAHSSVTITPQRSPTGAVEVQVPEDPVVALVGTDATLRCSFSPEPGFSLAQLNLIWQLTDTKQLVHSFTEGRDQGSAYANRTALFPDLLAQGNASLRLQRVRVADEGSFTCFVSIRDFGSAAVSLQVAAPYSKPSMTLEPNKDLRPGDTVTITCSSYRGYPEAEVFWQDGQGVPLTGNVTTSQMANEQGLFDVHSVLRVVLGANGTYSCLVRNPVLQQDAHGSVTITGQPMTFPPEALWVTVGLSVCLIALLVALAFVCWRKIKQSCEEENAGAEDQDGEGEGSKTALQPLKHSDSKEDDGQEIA

B1: 40511p1.1.D8 (scFv, V domains shown)
VH: DVQLVESGGGVVRPGESLRLSCAASGFTFSSYAMSWVRQAPGEGLEWVSSISGSGGSTLYADSVKGRFTISRDSSNNSLYLQMNSLRAEDTAVYYCAKARNNFFDYWGLGTLVTVSS
VL: EIVLTQSPGTLTLSPGERATLSCRASRSILTSLAWYQQRPGQAPRLLIYGANSRATGIPDRFSGSGSGTEFTLTISSLQSEDFAVYYCQQYYDWLTITFGGGTKVEIK
notes: Tested as scFv-Fc (Expi293 supernatant)
B2: 40511p1.2.B5 (scFv, V domains shown)
VH: B1 VH
VL: B1 VL with A43T
notes: as for B1
B3: 40511p1.2.A12 (scFv, V domains shown)
VH: DVQLVESGGGVVRPGESLRLSCAASGFTFSSYAESWVRQAPGEGLEWVSIISGSGGNTFYADSVKGRFTISRDNSKNTLYLQMNSLRAEDTAVYYCARFAYGFFDYWGLGTLVTVSS
VL: EIVLTQSPGTLSVSPGERATLSCRASQTVGSKLAWYQQKPGQPPSLLIYDASTRATGIPDRFSGSGSGTDFTLTISSLQSEDFAVYYCQQYRNWPPLTFGGGTKVEIK
notes: Tested as scFv-Fc (Expi293 supernatant); also called 40511p1.2.Al2
B4: 40579p1.B8 (scFv, V domains shown)
VH: EVQLLESGGGLVQPGGSLRLSCAASGFTFSDYYMSWVRQAPGKGLEWVSGISMSSTIYYADSVKGRFTISRDNSKNTLYLQMNSLRAEDTAVYYCARHRSPYQYRSMDVWGQGTTVTVSS
VL: B3 VL with V13L, T28S, G30N, T53R, D70E, R92N
notes: as for B1
B5: 40579p1.C2 (scFv, V domains shown)
VH: EVQLLESGGDLVQPGGSLRLSCAASGFNFSSYWMSWVRQAPGKGLEWVSGISISYGGNAYYADSVKGRFTVSRDNSKNTLYLQMNSLRAEDTAVYYCGRDRSPYQYRSMDVWGQGTTVTVSS
VL: B3 VL with G9A, L21F, V29I, S31N, P43A, S45R, Y49F, D50S, G57D, R92N
notes: as for B1
B6: 40511p1.1.G1 (scFv, V domains shown)
VH: B3 VH
VL: B3 VL with R18G
notes: as for B1
B7: 40511p1.2.A4 (scFv, V domains shown)
VH: B3 VH
VL: B3 VL with P43A, S45R, G57D
notes: as for B1
B8: 40633p1.2.D1 (scFv, V domains shown)
VH: EVQLLESGGGLVQPGGSLRLSCAASGFTFDVYGMSWVRQAPGKGLEWVSAINWNGGSTYYADSVKGRFTISRDNSENTLYLQMNSLRAEDTAVYYCAKEKWKHFIYYGMDVWGQGTTVTVSS
VL: QSVLTQPASASGTPGQTVSISCSGSSSNIDSNTANWYQQLPGTAPKLLIYSNNQRPSGVPDRFSGSKSDTSASLAISGLQSEDEGDYYCSAWDDNLNGWLFGGGTKLTVL
notes: as for B1
B9: 40633p1.2.E5 (scFv, V domains shown)
VH: B8 VH with V31G, N52S, W53G, G55S, T58I, E76K, V93A
VL: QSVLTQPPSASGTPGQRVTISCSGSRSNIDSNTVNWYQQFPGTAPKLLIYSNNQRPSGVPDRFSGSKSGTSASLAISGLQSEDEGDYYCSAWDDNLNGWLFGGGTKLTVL
notes: as for B1
B10: 40633p1.2.D11 (scFv, V domains shown)
VH: EVQLESGGGLVQPGGSLRLSCAASGFTVSYYGMSWVRQAPGKGLEWVSAIKQDGSEKYYADSVKGRFTISRDNSKNTLYLQMNSLRAEDTAVYYCARHWNDYSNAMNVWGQGTTVTVSS
VL: QSVLTQPPSASGTPGQRVTISCSGSTSNIAIDFVNWYQQLPGTAPKLLIYTIDQRPSGVPDRFSGSKSGTSASLAISGLQSEDEAVYYCASWDASLNGWVFGRGTKLTVL
notes: as for B1
B11: 40511p1.1.H10 (scFv, V domains shown)
VH: DVQLVESGGGVVRPGESLRLSCAASGFTFSNYAMNWVRQAPGEGLEWVSRINYKGYNITYYADSVKGRFTISRDNSKNTLYLQMNSLRAEDTAVYYCAKSGSNSNNFFDYWGLGTLVTVSS
VL: EIVLTQSPGNLSLSPGERATLSCRASQSVGSQLGWYQQKPGQAPRLLIYGASTRATGIPDRFSGSGSGTEFALTISSLQSEDFAVYYCQQYYDWPPLTFGGGTKVEIK
notes: as for B1
B12: 40511p1.2.G10 (scFv, V domains shown)
VH: B11 VH
VL: B3 VL with V13L, P43A, S45R, D50G, G57D, D70E, R92I, T98S
notes: as for B1
B13: 40511p1.1.H5 (scFv, V domains shown)
VH: B11 VH
VL: EIVLTQSPGTLSLSPGERATLSCRASQSIRSDLAWYQQKPGQAPRLLIYGAASRATGIPARFSGSGSGTEFTLTISSLQSGDFAVYYCQQYNSWPPLTFGGGTKVEIK
notes: as for B1

Changes are numbered by the printed parent chain.

The target of one assay is T1, His-tagged human B7-H3. Nature of the assay: ELISA OD450 on hu B7-H3 over OD450 on mu B7-H3. For orientation: An ELISA detects its analyte on a solid surface through an enzyme-linked reagent.
For B1, the “hu:mu ratio” value stood at 2.39.
Consider B2, for which the “hu:mu ratio” value was determined as 2.78.
With B3, the “hu:mu ratio” value is 1.25.
As to B4, the “hu:mu ratio” value came to 1.12.
As to B5, the “hu:mu ratio” value came to 1.16.
With B6, the “hu:mu ratio” value was 1.32.
On the same count and under the same terms, then B7, with 1.33.
Still for that read-out and setting: then B8, with 1.08.
Still for that read-out and setting: then B9, with 1.12.
For B10, the “hu:mu ratio” value was 1.49.
With B11, the “hu:mu ratio” value came out at 4.64.
Same read-out and setting: then B12, with 1.37; and B13, with 2.25.

The target in the next assay is T2, His-tagged mouse B7-H3. In words: ELISA, coated His-tagged antigen, scFv-Fc 1 ug/ml.
In the case of B1, the “ELISA OD450 @ 1 ug/ml” value was determined as 0.891 OD450.
As for B2, the “ELISA OD450 @ 1 ug/ml” value is 0.771 OD450.
Still for that read-out and setting: then B3, with 1.7 OD450; and B4, with 1.98 OD450.
Still for that read-out and setting: then B5, with 1.82 OD450; and B6, with 1.67 OD450.
Same read-out and setting: then B7, with 1.55 OD450.
Consider B8, for which the “ELISA OD450 @ 1 ug/ml” value came to 1.38 OD450.
With B9, the “ELISA OD450 @ 1 ug/ml” value stood at 1.92 OD450.
Still for that read-out and setting: then B10, with 1.03 OD450; and B11, with 0.138 OD450.
On the same count and under the same terms, then B12, with 1.45 OD450; and B13, with 0.758 OD450.

The next assay addresses T3, His-tagged cynomolgus monkey B7-H3. Nature of the assay: ELISA, coated His-tagged antigen, scFv-Fc 1 ug/ml.
On to B1, for which the “ELISA OD450 @ 1 ug/ml” value was determined as 2.02 OD450.
On the same count and under the same terms, then B2, with 2.12 OD450; and B3, with 2.34 OD450; and B4, with 2.08 OD450.
For B5, the “ELISA OD450 @ 1 ug/ml” value amounted to 2.18 OD450.
B6: the “ELISA OD450 @ 1 ug/ml” value came to 2.28 OD450.
Same read-out and setting: then B7, with 2.3 OD450; and B8, with 1.94 OD450; and B9, with 2.08 OD450.
In the case of B10, the “ELISA OD450 @ 1 ug/ml” value is 1.95 OD450.
Still for that read-out and setting: then B11, with 2.03 OD450; and B12, with 2.37 OD450.
For the molecule B13, the “ELISA OD450 @ 1 ug/ml” value turned out to be 2.22 OD450.

For another assay, the target named is T1, His-tagged human B7-H3. Nature of the assay: ELISA, coated His-tagged antigen, scFv-Fc 1 ug/ml.
On to B1, for which the “ELISA OD450 @ 1 ug/ml” value is 2.13 OD450.
Take B2: the “ELISA OD450 @ 1 ug/ml” value worked out at 2.14 OD450.
B3: the “ELISA OD450 @ 1 ug/ml” value is 2.13 OD450.
As to B4, the “ELISA OD450 @ 1 ug/ml” value amounted to 2.21 OD450.
Same read-out and setting: then B5, with 2.12 OD450; and B6, with 2.2 OD450; and B7, with 2.06 OD450.
Same read-out and setting: then B8, with 1.49 OD450; and B9, with 2.15 OD450.
The same measure, in the same setting: then B10, with 1.53 OD450.
In the case of B11, the “ELISA OD450 @ 1 ug/ml” value worked out at 0.641 OD450.
Same read-out and setting: then B12, with 1.98 OD450; and B13, with 1.71 OD450.

Another assay addresses T4, B7-H3 on B7-H3-expressing CHO cells …. Nature of the assay: flow cytometry, B7-H3-expressing CHO cells, 10 ug/ml. The method in brief:
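Antibodies at 10 μg/ml in PBS/1% BSA/0.01% NaN3 incubated 60 min on ice with ~1.5e5 cells; parental CHO cells as counterscreen. After washing, read by flow cytometry; values are mean fluorescent intensities (MFI).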
On the technique in general: Flow cytometry measures light scatter and fluorescence of single cells or particles in a stream.
Consider B1, for which the “MFI @ 10 ug/ml” value turned out to be 79200 MFI.
Turning to B2, the “MFI @ 10 ug/ml” value stood at 67900 MFI.
Still for that read-out and setting: then B3, with 77200 MFI.
B4: the “MFI @ 10 ug/ml” value was 85500 MFI.
B5: the “MFI @ 10 ug/ml” value is 75400 MFI.
As for B6, the “MFI @ 10 ug/ml” value was determined as 74500 MFI.
Turning to B7, the “MFI @ 10 ug/ml” value turned out to be 82700 MFI.
The same measure, in the same setting: then B8, with 14100 MFI; and B9, with 86600 MFI; and B10, with 63200 MFI.
Consider B11, for which the “MFI @ 10 ug/ml” value was determined as 22100 MFI.
The same measure, in the same setting: then B12, with 78500 MFI.
As for B13, the “MFI @ 10 ug/ml” value is 62200 MFI.

The values above are taken from patent US20260008852A1 (CRYSTAL BIOSCIENCE, published 2026).
